Experiments:
[1] = biological target: αV/β5 integrin receptor complex (Homo sapiens, UniProt P06756+P18084); assay: Co-immunoprecipitation on a nickel ion column; format: binding; conditions: 100 nM Fc-fused RUCILP2, 5 nM His-tag αV/β5 integrin
Procedure: FIG. 6. Co-immunoprecipitation on a nickel ion column to validate binding of recombinant RUCILP2 to the αV/β5 integrin receptor complex. 100 nM Fc-fused RUCILP2 was incubated with 5 nM of His-tag αV/β5 integrin receptor, followed by immunoprecipitation using nickel-nitrilotriacetic acid (Ni-NTA) agarose. Precipitated integrins and co-precipitated irisin were analyzed by immuno-blot analysis. Elution indicates a mixture of disassociated integrin and RUCILP2 from the integrin-RUCILP2 complex. Before loading, samples were a mixture of co-incubation of RUCILP2 and integrin receptor.
• Step 1: Binding of integrin and RUCILP2. One hundred nM FC-tagged RUCILP2 was incubated with 5 nM of the indicated his-tag integrin avb5 in a final volume of 500ul in 1.5 ml Protein LoBind Tubes (Eppendorf, 022431081) for 5/30/90 minutes at room temperature under rotation. • Step 2: After rotation, Ni spin column (ThermoFisher Scientific, R901-01) was applied to immunoprecipitate integrins. In details, Add 500 μl of FC-RUCILP2-integrin-His protein complex to the column. Mix end-over-end at 4° C. for 15 minutes. […] Precipitated integrin was detected by immuno-blot analysis against his tag. Co-precipitated RUCILP2 was detected by immunoblot analysis against FC-tag. […]

[2] = test system: human visceral white pre-adipocytes; assay: Thermogenesis/browning gene expression in human visceral white pre-adipocytes (q-PCR); format: cell-based; conditions: human white preadipocytes, treatment from third day of differentiation, harvested after 14 days
Procedure: FIG. 9. Exposure of recombinant RUCILP2 to human visceral white pre-adipocytes or murine inguinal white adipocytes causes up-regulation of the expression of genes involved in thermogenesis/browning. Upper panel: mRNA expression level of adipocyte differentiation marker genes including Ucp1, Pparγ1, Dio2, and Cox2 and brown adipocyte-selective genes including Cpt1b and Ebf2 on human white preadipocytes (HWP). Human white preadipocytes were cultured until 80% confluent and switched into differentiation media (with 0.3 ml/ml fetal calf serum, 8 ug/ml d-biotin, 0.5 ug/ml insulin, 400 ng/ml dexamethasone). The differentiation process to mature adipocytes was completed after 12-14 days. The treatment of RUCILP2 started from the third day of differentiation. Cells were harvested after 14 days of differentiation and the gene expressions were quantified by q-PCR. […] Statistical significance was determined by unpaired two-tailed Student's t test. *, p<0.05 vs 0 nM RUCILP2.
FIG. 28. […] Cells were harvested after 14 days of differentiation and the indicated genes were quantified by q-PCR. […] Cells were harvested after 6 days of differentiation and thermogenesis gene were quantified by q-PCR. […] Cells were harvested after 4 days of differentiation and expression of myogenesis genes were quantified by q-PCR. […] Statistical significance was determined by unpaired two-tailed Student's t test, *, p<0.05 […]

Sequence of αV/β5 integrin receptor complex (P06756 31-992 limits assumed): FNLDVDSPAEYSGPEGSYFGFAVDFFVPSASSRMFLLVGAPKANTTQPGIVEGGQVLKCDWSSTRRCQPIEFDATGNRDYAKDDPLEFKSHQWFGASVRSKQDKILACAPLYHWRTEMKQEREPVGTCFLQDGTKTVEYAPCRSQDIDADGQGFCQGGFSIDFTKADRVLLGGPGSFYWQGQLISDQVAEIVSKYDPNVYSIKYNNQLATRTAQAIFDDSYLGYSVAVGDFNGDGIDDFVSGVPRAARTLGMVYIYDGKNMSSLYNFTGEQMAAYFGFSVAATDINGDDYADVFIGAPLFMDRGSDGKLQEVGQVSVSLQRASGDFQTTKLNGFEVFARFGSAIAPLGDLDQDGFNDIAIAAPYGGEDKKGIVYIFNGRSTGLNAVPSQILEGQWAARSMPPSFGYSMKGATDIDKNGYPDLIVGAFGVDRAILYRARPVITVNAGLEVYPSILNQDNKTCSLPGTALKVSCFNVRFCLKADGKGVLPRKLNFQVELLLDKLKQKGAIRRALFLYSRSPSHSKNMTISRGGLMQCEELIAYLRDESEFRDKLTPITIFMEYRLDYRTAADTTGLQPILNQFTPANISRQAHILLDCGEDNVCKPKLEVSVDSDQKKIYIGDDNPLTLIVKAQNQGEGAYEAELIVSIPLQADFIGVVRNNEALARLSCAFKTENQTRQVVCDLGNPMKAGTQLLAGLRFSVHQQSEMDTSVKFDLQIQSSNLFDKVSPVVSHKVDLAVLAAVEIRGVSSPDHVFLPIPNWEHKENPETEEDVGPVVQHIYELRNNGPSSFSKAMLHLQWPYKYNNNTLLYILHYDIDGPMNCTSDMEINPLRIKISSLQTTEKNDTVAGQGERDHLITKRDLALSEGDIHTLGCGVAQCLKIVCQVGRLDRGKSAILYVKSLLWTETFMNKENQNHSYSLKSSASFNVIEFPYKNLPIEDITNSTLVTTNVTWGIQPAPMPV
Sequence of αV/β5 integrin receptor complex (P18084 24-719 limits assumed): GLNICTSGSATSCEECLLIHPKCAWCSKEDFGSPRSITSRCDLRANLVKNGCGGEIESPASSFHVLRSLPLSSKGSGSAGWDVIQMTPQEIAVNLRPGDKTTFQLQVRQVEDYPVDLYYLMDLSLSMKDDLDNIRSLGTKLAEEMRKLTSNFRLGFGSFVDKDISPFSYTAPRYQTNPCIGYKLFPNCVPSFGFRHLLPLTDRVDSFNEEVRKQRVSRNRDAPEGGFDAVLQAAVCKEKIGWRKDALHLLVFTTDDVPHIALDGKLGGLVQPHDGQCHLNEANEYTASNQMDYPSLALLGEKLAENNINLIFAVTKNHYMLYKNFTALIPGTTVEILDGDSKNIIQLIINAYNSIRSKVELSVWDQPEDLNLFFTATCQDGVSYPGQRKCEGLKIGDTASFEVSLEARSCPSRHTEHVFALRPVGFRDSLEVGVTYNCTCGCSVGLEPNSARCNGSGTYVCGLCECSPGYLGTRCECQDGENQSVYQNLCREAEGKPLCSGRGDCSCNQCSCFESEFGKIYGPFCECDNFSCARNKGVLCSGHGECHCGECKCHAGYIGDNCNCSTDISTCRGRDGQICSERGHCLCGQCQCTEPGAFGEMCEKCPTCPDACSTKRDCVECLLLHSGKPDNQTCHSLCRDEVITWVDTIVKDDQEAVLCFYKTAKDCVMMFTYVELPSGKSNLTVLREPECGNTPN

B1: RUCILP2: 87 amino acid irisin-like polypeptide cleaved from the Ruminococcus torques FNDC5-like protein RUMTOR_00181; recombinant, 6-His-tagged from E. coli (protein)
chain: APVDVKVSEITETSAKASWKNAADGKEAAGYNVYVDGVKLNKELLTEASCGLTNLKAETTYFVEVTAVDAAGNESVKSEKVTFKTLK
modifications: 6-His tag; Ruminococcus torques
notes: 87 amino acid irisin-like polypeptide cleaved from the Ruminococcus torques FNDC5-like protein RUMTOR_00181; recombinant, 6-His-tagged from E. coli
binding to αV/β5 integrin receptor (co-immunoprecipitation) [1]: direct interaction | expression of genes involved in thermogenesis/browning (Ucp1, Pparγ1, Dio2, Cox2, Cpt1b, Ebf2) [2]: up-regulation

Reference: patent publication US20240336661A1, “PEPTIDES DERIVED FROM RUMINOCOCCUS TORQUES” (University of Copenhagen, priority 2021, published 2024)
